Experimental data as given in PMC5529062 (Science Advances, 2017).

Molecular target: P22 coat protein (CP) monomers (bacteriophage P22, UniProt P26747 1-430)
Assay: SEC

P22 coat protein (CP) monomers, sequence (P26747 whole entry): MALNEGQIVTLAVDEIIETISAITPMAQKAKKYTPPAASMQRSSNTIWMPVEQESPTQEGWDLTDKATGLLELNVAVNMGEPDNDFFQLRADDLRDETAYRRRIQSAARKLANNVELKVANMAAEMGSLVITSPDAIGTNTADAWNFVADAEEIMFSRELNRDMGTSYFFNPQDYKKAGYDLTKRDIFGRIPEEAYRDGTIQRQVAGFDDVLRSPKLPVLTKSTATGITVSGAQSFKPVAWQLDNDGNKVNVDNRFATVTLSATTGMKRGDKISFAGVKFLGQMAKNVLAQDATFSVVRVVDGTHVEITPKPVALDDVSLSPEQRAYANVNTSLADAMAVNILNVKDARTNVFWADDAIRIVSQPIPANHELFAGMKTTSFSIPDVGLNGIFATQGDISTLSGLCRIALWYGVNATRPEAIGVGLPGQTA

B1: P22 scaffolding protein (SP) (natural protein, bacteriophage P22, UniProt P26748 1-303, looked up)
chain: MEPTTEIQATEDLTLSGDHAAASADSLVVDNANDNAGQEEGFEIVLKDDETAPKQDPAKNAEFARRRIERKRQRELEQQMEAVKRGELPESLRVNPDLPPQPDINAYLSEEGLAKYDYDNSRALAAFNAANTEWLMKAQDARSNAVAEQGRKTQEFTQQSAQYVEAARKHYDAAEKLNIPDYQEKEDAFMQLVPPAVGADIMRLFPEKSAALMYHLGANPEKARQLLAMDGQSALIELTRLSERLTLKPRGKQISSAPPADQPITGDVSAANKDAIRKQMDAAASKGDVETYRKLKAKLKGIR
Q: Does B1 bind?
A: binds
